# From patent publication US7169892B2, “Lipid-peptide-polymer conjugates for long blood circulation and tumor specific drug delivery systems” (Astellas Pharma Inc., priority 2003, dated 2007)
# The star is where a group is joined. amidopropyl polyoxyethylene methyl ether = C-terminal amidopropyl PEG methyl ether; Fmoc = O=C(OCC1c2ccccc2-c2ccccc21)*
# Biological target: T1, MMP-2 (Homo sapiens, UniProt P08253)
# T1 sequence (P08253 110-660): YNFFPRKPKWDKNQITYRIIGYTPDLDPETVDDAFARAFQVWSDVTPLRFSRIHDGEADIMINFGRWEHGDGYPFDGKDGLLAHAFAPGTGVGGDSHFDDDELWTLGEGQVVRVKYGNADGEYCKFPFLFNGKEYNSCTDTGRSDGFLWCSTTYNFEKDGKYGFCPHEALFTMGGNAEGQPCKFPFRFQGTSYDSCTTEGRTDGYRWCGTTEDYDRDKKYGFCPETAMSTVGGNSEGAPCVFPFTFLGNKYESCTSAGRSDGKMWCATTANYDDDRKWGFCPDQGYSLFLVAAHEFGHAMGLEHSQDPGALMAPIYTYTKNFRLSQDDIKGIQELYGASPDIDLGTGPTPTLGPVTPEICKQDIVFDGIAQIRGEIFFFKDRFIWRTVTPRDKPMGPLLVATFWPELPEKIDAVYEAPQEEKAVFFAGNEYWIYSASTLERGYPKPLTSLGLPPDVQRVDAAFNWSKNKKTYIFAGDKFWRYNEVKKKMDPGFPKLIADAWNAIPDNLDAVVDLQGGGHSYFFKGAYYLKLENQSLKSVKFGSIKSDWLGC
# Experiment: Degradation of Fmoc-GPQGIAGWG-PEG by MMP-2 (gel filtration)
# Format: biochemical
# Settings: per unit weight of MMP-2 and unit time, beginning (15 minutes), MMP-2 0.34 μg/ml, 37° C., FIG. 4
# Method: After mixing in 0.5 ml of sample in 0.5 ml of acetonitrile, the mixture was filtered and gel filtration was performed.
# The effects on degradation by MMP-2 when PEG bonded with Fmoc-GPQGIAGWG (SEQ ID NO:21) were evaluated.
# MMP-2 solution was diluted with Tris buffer. […] The final concentration of MMP-2 was 0.34 μg/ml. […] The Fmoc-GPQGIAGWG-PEG (SEQ ID NO:22) in the filtrate was separated and quantitatively determined by gel filtration.
substance,measurement,value
9-fluorenylmethyloxycarbonyl (Fmoc)-glycyl-prolyl-glutamyl-glycyl-isoleucyl-alanyl-glycyl -tryptophanyl-glycyl (Fmoc-Gly-Pro-Gln-Gly-Ile-Ala-Gly-Trp-Gly)-amidopropyl polyoxyethylene methyl ether (Fmoc-GPQGIAGWG-{amidopropyl polyoxyethylene methyl ether}) [Fmoc-GPQGIAGWG-PEG],degradation rate by MMP-2 compared with Fmoc-GPQGIAGWG,virtually the same
